Data set [1] deals with T1, Fis (Escherichia coli DH5alpha, UniProt P0A6R3 1-98). Briefly: EMSA; significant complex at 0.25 uM Fis, stronger than FIS2; salmon sperm DNA; 20 mM HEPES (pH not stated), 150 mM NaCl, 500 ug/mL BSA, 1 mM DTT, 0.1 mM EDTA, 0.5-1 ug/ul salmon sperm DNA, room temperature 30 min; DNA 100 nM or 500 nM-1 uM (Methods); 6% gel, 0.5x TBE. The note with it: protein: recombinant; tags: N-terminal GST (pGEX-KG); label: 5'-biotin on forward strand; blunt.

Data set [2] deals with T1, Fis. Briefly: EMSA; complex detectable at 0.25-0.50 uM Fis; salmon sperm DNA; 20 mM HEPES (pH not stated), 150 mM NaCl, 500 ug/mL BSA, 1 mM DTT, 0.1 mM EDTA, 0.5-1 ug/ul salmon sperm DNA, room temperature 30 min; DNA 100 nM or 500 nM-1 uM (Methods); 6% gel, 0.5x TBE. The settings on record: protein: recombinant; tags: N-terminal GST (pGEX-KG); label: 5'-biotin on forward strand; blunt. (Mobility shift assays separate free from complexed probe on a gel.)

T1 sequence (P0A6R3 whole entry): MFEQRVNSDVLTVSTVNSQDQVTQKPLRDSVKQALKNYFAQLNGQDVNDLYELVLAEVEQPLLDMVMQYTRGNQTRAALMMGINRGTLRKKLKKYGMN

B1: FIS2m2 (dsDNA)
DNA 1: AAATTTGTTTGGGCGCTGAGCAAATTT
DNA 2: AAATTTGCTCAGCGCCCAAACAAATTT
modifications: O6-methylguanine at nt 12 and 15 of strand 1 (positions -2, +1)
B1: in data set [1], the binding result is “binds”.

B2: FIS1 (dsDNA)
DNA 1: AAATTTGTTTGAATTTTGAGCAAATTT
DNA 2: AAATTTGCTCAAAATTCAAACAAATTT
Consider B2, for which, in data set [2], the binding result is “binds”.

These data come from PMC3547798, “Binding of Nucleoid-Associated Protein Fis to DNA Is Regulated by DNA Breathing Dynamics”.
